Reference: patent publication US20250206795

Tested on: T1, Mouse proBDNF-G-CSF-Tr protein
T1 sequence: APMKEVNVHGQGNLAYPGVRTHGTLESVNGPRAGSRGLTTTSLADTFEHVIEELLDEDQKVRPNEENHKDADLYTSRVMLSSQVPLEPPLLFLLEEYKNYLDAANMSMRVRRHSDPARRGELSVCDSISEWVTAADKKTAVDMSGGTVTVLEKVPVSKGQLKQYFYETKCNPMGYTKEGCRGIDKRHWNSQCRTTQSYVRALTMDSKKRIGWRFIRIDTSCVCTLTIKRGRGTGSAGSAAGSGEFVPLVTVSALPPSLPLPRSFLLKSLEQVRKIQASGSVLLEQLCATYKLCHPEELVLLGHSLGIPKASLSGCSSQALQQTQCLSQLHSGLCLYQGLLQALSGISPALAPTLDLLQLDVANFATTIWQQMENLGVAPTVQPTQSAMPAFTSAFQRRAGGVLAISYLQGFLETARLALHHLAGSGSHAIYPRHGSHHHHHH

## furin
  enzymatic cleavage (SDS PAGE and Western blot with anti-4-His antibodies), 1 Unit furin, 30 C, 4 hours: furin effectively cleaved the proBDNF-G-CSF-Tr molecule to yield BDNF-G-CSF-Tr
